These results are taken from patent US20120107323A1, “KINASE PROTEIN BINDING INHIBITORS” (University of Florida, priority 2009, published 2012).

This test concerns the target IGF-1R of the transfected cells of Example 10 (confocal microscopy) (Homo sapiens (Human)) (UniProt P08069). The test can be described thus: confocal microscopy, colocalization in cells transfected in the presence of the small molecule NSC 250435.

For GFP-fused FAK-NT2 (a.a. 127-243), the percentage of interaction was 30%.
